We go through one molecule from PMC4547098 (eLife, 2015).

For experiment [1], the target named is AVR-PikD with non-cleavable C-terminal 6xHis tag (pOPINE) (Magnaporthe oryzae, UniProt C4B8B8 22-113). The experiment can be described thus: SPR; Biacore T200, 25°C, single-cycle kinetics; […]; 50 mM HEPES pH 7.5, 150 mM NaCl, 0.1% Tween 20. The conditions noted are these: both partners purified. (Surface plasmon resonance follows binding to a sensor surface in real time, without labels.)

Experiment [2] has as its target AVR-PikE with non-cleavable C-terminal 6xHis tag (pOPINE) (Magnaporthe oryzae, UniProt C4B8B8 22-113). Kind of experiment: SPR. The following applies: both partners purified.

What is called Kd is the equilibrium constant for the complex coming apart. Low values mean a tighter complex, high ones a looser complex.

B1: Pikp-HMA domain (HMA integrated domain of the rice NLR Pikp-1) (domain or fragment)
chain: GLKQKIVIKVAMEGNNCRSKAMALVASTGGVDSVALVGDLRDKIEVVGYGIDPIKLISALRKKVGDAELLQVS
notes: also called Pikp1-HMA; Pikp-1 HMA; not shown: 6xHis+SUMO, N-terminal, cleaved
B1: the Kd was 29 ± 3.5 nM in experiment [1] and 367 ± 41 nM in experiment [2].
